Key:
Type in all cases: cell-based
[1] = test system: P. aeruginosa ATCC 27312; assay: Minimum inhibitory concentration (MIC) in bacteria suspension; conditions: for MIC values: thermolysin, where present, kept constant at 50 μg/mL
Procedure: (§1) The concentration of thermolysin in the MIC experiments was kept constant at 50 μg/mL.

[2] = test system: S. aureus ATCC 29213; assay: as above; conditions: for MIC values: thermolysin, where present, kept constant at 50 μg/mL
Procedure: as §1

[3] = test system: P. aeruginosa ATCC 15442 bacterial biofilm; assay: In-vitro gram-negative bacterial biofilm study, 96 well plate, crystal violet staining; conditions: 18 hours at 37° C., FIG. 2
Procedure: An in-vitro assay was performed to determine the bacterial biofilm reduction capabilities of thermolysin and collagenase on gram-negative bacterial biofilms. In this assay P. aeruginosa ATCC 15442 was suspended in a growth media of 10% tryptic soy broth in PBS supplemented with 0.45% glucose (TSBG). The suspension was transferred to the wells of sterile 96 well plates and incubated for 18 hours at 37° C., then the media was changed with fresh media and incubated an additional 8 hours at 37° C. After formation of the bacterial biofilm, the growth media was replaced with solutions of thermolysin dissolved in TSBG growth media at various concentrations in some wells and replaced with solutions of collagenase dissolved in growth media at the same concentrations in other wells (enzyme concentrations were 0.00001 mg/mL, 0.0001 mg/mL, 0.001 mg/mL, 0.01 mg/mL, 0.1 mg/mL, 1.0 mg/mL, and 10 mg/mL). After 18 hours at 37° C., the remaining attached bacteria were quantified by removing the enzyme solutions (enzyme+TSBG growth media) and washing the plate thoroughly followed by crystal violet staining and recording the absorbance at 570 nm. A growth media control without enzyme was also tested. […] A decreased absorbance compared to the Control indicates a reduction of attached bacteria meaning a reduction of the bacterial biofilm occurred.

[4] = test system: S. aureus ATCC 6538 bacterial biofilm; assay: In-vitro gram-positive bacterial biofilm study, 96 well plate, crystal violet staining; conditions: concentrations of 0.00001 mg/mL-10 mg/mL, 16 hours, FIG. 1
Procedure: An in-vitro assay was performed to determine the bacterial biofilm reduction capabilities of thermolysin and collagenase on gram-positive bacterial biofilms. In this assay, S. aureus ATCC 6538 was suspended in a growth media of tryptic soy broth supplemented with 0.25% glucose for optimal bacterial biofilm formation. The suspension was transferred to the wells of sterile 96 well plates and incubated for 22 hours at 37° C. with one change of media. After formation of the bacterial biofilm, the growth media was replaced with solutions of thermolysin dissolved in growth media at various concentrations in some wells and replaced with solutions of collagenase dissolved in growth media at the same concentrations in other wells (enzyme concentrations were 0.000001 mg/mL, 0.00001 mg/mL, 0.0001 mg/mL, 0.001 mg/mL, 0.01 mg/mL, 0.1 mg/mL, 1.0 mg/mL, and 10 mg/mL). After 16 hours, the remaining attached bacteria were quantified by aspirating the enzyme solutions (enzyme+growth media) and washing the plate thoroughly followed by crystal violet staining and recording the absorbance at 570 nm. A growth media control without enzyme was also tested. The crystal violet binds to negative charges on the remaining attached bacteria and the EPS. A decreased absorbance compared to the Control indicates a reduction of attached bacteria meaning a reduction of the bacterial biofilm occurred.

Molecule: gentamicin sulfate
- MIC values ([1]; Rep 1): 50 µg/mL
- MIC values ([1]; Rep 2): 50 µg/mL
- MIC values ([2]; Rep 1): 1.6 µg/mL
- MIC values ([2]; Rep 2): 1.6 µg/mL

B1: thermolysin (protein, UniProt P00800 233-548, looked up)
Thermolysin: ITGTSTVGVGRGVLGDQKNINTTYSTYYYLQDNTRGNGIFTYDAKYRTTLPGSLWADADNQFFASYDAPAVDAHYYAGVTYDYYKNVHNRLSYDGNNAAIRSSVHYSQGYNNAFWNGSQMVYGDGDGQTFIPLSGGIDVVAHELTHAVTDYTAGLIYQNESGAINEAISDIFGTLVEFYANKNPDWEIGEDVYTPGISGDSLRSMSDPAKYGDPDHYSKRYTGTQDNGGVHINSGIINKAAYLISQGGTHYGVSVVGIGRDKLGKIFYRALTQYLTPTSNFSQLRAAAVQSATDLYGSTSQEVASVKQAFDAVGVK
- effect of the addition of thermolysin on the MIC of gentamicin sulfate ([1]; thermolysin 50 μg/mL): did not affect the MIC
- effect of the addition of thermolysin on the MIC of gentamicin sulfate ([2]; thermolysin 50 μg/mL): did not affect the MIC
- effect in reducing the bacterial biofilm (crystal violet absorbance at 570 nm vs growth media control) ([3]; concentrations of 0.00001 mg/mL-0.01 mg/mL): little effect
- effect in reducing the bacterial biofilm (crystal violet absorbance at 570 nm vs growth media control) ([3]; concentrations of 0.1 mg/mL-10 mg/mL): no effect
- effect in reducing the bacterial biofilm (crystal violet absorbance at 570 nm vs growth media control) [4]: had an effect in reducing the bacterial biofilm
